# Source: patent publication US7371842B2, “Polynucleotide encoding a 35 KDA protein thats binds to WF00144” (Astellas Pharma Inc., priority 2002, dated 2008)
# Assay: Aldol cleavage reaction of fructose 1,6-bisphosphate, coupled with TIM/G3PDH, NADH 340 nm
# Format: biochemical
# Conditions: F1,6P2 cleaved, 37° C., 30 minutes, pH 8.0
# Method: The aldolase activity of the human 35 kd protein was determined as follows, according to the method described in a reference (Novel Biochemistry Experiment Lectures, Vol. 15, Metabolism Abnormality, p. 111, edit. Biochemical Society of Japan, publish. Tokyo Kagaku Dojin-sha, Sep. 22, 1992):
# Conjugated with triose phosphate isomerase (TIM) and glycerol 3-phosphate dehydrogenase (G3PDH), the aldol cleavage reaction of fructose 1,6-bisphosphate (F1, 6P2) with the 35 kd protein was determined with NADH.
# A reaction liquid having the composition mentioned below was prepared, and reacted at 37° C. for 30 minutes. The enzymatic reaction was monitored through the reduction in the 340 nm absorbance owing to the oxidation of NADH in the reaction liquid. The enzymatic reaction was indicated by the number of mols of F1, 6P2, per mg of the protein, cleaved within 1 minute (μmol/min/mg protein).
# Reaction liquid 200 μl: 0.25 mM tris HCl buffer (pH 8.0), 0.15 M NaCl, 0.5 mM F1, 6P2 (from Sigma), human 35 kd protein, human liver TIM (500 μg/ml), rabbit skeletal muscle G3PDH (8 units/ml, from Sigma), 0.3 mM NADH (from Nakarai).
# For comparison, a commercial product aldolase, Sigma's rabbit skeletal muscle aldolase (A-type aldolase), and an enzyme-free system were tested in the same manner.
substance,measurement,value
"Sigma's commercial product aldolase: commercial product aldolase, Sigma's rabbit skeletal muscle aldolase (A-type aldolase)",Aldolase Activity (μmol/min/mg protein),0.278 μmol/min/mg protein
